Test results taken from US20120201826A1.

Molecular target: recombinant human RANTES (huRANTES, Peprotech) (human) (UniProt P13501)
Assay: cell-based or functional assay

recombinant human RANTES (huRANTES, Peprotech) (human), sequence (P13501 24-91): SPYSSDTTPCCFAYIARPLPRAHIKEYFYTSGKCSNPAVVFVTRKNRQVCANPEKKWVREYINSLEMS

B1: A5 scFv (scFv, part only; not given: linker and tags, part only)
scFv, part: QVQLVQSGAEVKKPGASVKVSCKVSGYALSELSIHWVRQAPGKGLEWMSYIDPEDGEPIYAQKFQGRATMTEDSSTDTAYMEMGSLTSDDTAVYYCAGVTGSTSDAFDLWGRGTLVTVSSSYVLTQDPSVSVAPGQTARITCGGANLWGLGVHWYQQKSGQAPVLVVSDNSDRASGIPERFSGSNSGTTATLTLSRVEVGDEADYYCQVWDSSSDHWVFGGRTKLTVL
- Chemotaxis IC50 (nM); L1.2 cells expressing hCCR5, 1 nM huRANTES; scFv format: 21 nM
